Data as given in article PMC9908889.

Assays:
MORF WH2 (Homo sapiens) [1] = assay: EMSA; details: EMSA: 20-25 mM Tris-HCl pH 7.5, 20-150 mM NaCl, 0-0.2 mM EDTA, 0-5 mM DTT, 0-20% glycerol, 4 C, NCP197 EMSA: 10 mM Tris, 1 mM EDTA, 10 mM NaCl, 1 mM TCEP, FP: …
MORF WH1 (Homo sapiens) [2] = molecular target: T1, MORF WH1 (Homo sapiens) (UniProt Q8WYB5); assay: EMSA; details: His-tagged; EMSA: 20-25 mM Tris-HCl pH 7.5, 20-150 mM NaCl, 0-0.2 mM EDTA, 0-5 mM DTT, 0-20% glycerol, 4 C; NCP197 EMSA: 10 mM Tris, 1 mM EDTA, 10 mM NaCl, 1 mM TCEP; FP: …
T1 sequence: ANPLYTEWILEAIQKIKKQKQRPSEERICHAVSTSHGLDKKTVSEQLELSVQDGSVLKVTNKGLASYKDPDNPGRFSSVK

MORF WH1 (Homo sapiens) [3] = molecular target: T1, MORF WH1 (Homo sapiens); assay: fluorescence polarization; details: EMSA: 20-25 mM Tris-HCl pH 7.5, 20-150 mM NaCl, 0-0.2 mM EDTA, 0-5 mM DTT, 0-20% glycerol, 4 C; NCP197 EMSA: 10 mM Tris, 1 mM EDTA, 10 mM NaCl, 1 mM TCEP; FP: …
[4] = molecular target: T2, MORF WH1-WH2 (Homo sapiens) (UniProt Q8WYB5); assay: fluorescence polarization; details: EMSA: 20-25 mM Tris-HCl pH 7.5, 20-150 mM NaCl, 0-0.2 mM EDTA, 0-5 mM DTT, 0-20% glycerol, 4 C; NCP197 EMSA: 10 mM Tris, 1 mM EDTA, 10 mM NaCl, 1 mM TCEP; FP: …
T2 sequence: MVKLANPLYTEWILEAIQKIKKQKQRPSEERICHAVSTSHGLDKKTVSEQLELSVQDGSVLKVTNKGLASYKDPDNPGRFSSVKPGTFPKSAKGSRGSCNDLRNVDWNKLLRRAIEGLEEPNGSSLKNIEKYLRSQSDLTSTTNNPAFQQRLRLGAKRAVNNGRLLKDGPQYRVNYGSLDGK

MORF WH2 (Homo sapiens) [5] = assay: fluorescence polarization; details: EMSA: 20-25 mM Tris-HCl pH 7.5, 20-150 mM NaCl, 0-0.2 mM EDTA, 0-5 mM DTT, 0-20% glycerol, 4 C, NCP197 EMSA: 10 mM Tris, 1 mM EDTA, 10 mM NaCl, 1 mM TCEP, FP: …

A-DNA15 (15 bp A-rich)
Kd (MORF WH2 (Homo sapiens) [1]; source data name GST-MORF WH2): 7.8 µM

C-DNA15 (15 bp C-rich)
Kd (MORF WH2 (Homo sapiens) [1]): 18 µM

CpG-DNA16
Kd (MORF WH1 (Homo sapiens) [2]): 2 µM

DNA147 (601 Widom)
K half (MORF WH1 (Homo sapiens) [3]): 15 µM
K half [4]: 62 nM

NCP147
K half (MORF WH1 (Homo sapiens) [3]): 9 µM
K half (MORF WH2 (Homo sapiens) [5]): 1000 nM
K half [4]: 12 nM

NCP207
K half (MORF WH1 (Homo sapiens) [3]): 0.3 µM
K half (MORF WH2 (Homo sapiens) [5]; text says NCP187, source data and Methods say NCP207): 1400 nM
K half [4]: 7 nM
